Experimental data taken from publication doi:10.1101/2023.09.14.557805, “Determinants of DDX3X sensitivity uncovered using a helicase activity in translation reporter” (bioRxiv, 2023).

Molecular target: T1, S. cerevisiae eIF4E (S. cerevisiae, UniProt P07260 1-213)
T1 construct: eIF4E of S. cerevisiae; 15N isotope labelled; m7GTP added to 250 μM in the NMR sample; source: E. coli BL21-star, purified (nickel resin, TEV cleavage, m7G cap resin)
T1 sequence (looked up): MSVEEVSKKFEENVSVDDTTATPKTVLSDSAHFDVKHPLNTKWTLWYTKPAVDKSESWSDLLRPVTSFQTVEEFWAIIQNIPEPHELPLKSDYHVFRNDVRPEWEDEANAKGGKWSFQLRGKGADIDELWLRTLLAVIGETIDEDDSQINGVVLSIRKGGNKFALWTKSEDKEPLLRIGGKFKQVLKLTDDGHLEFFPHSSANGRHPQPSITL
Experiment: NMR titration; 15N HSQC of 200 μM 15N eIF4E with 250 μM m7GTP, peptide added to 1 mM; 50 mM phosphate pH 6.5, 50 mM KCl, 10% D2O, 298 K, 900 MHz
Conditions: both partners purified

- binding result: binds
B1: 4E-BP1 peptide (human 4E-BP1 amino acids 51–67) (peptide)
peptide: RIIYDRKFLMECRNSPV
notes: 4E-BP1, human, amino acids 51–67; Dissolved at 50 mM in DMSO; source: synthetic peptide (Elim Bio)
